Legend:
adenomyosis lesions = assay: Adenomyosis complication in surgically-induced endometriosis monkey models; assay type: in vivo, cynomolgus monkeys; conditions: one case per group, compared to the vehicle group (FIG. 37)
Source text: After the final laparoscopic observation six months after the start of antibody administration in surgically-induced endometriosis monkey models, the uteri collected during autopsy were fixed with 10% neutral buffered formalin and HE-stained for observation. Endometrial tissues analogous to those of adenomyosis were strongly seen in the uterus in one case of the vehicle group as well as in one case of the antibody administration group. […] Thus, the monkeys were considered as being a human adenomyosis complication model, and the endometrial tissues in the myometria of these single cases were compared.

[1] = tested on: soluble forms of FcγRIa and FcγRIIIa in human and cynomolgus monkey; assay: Binding to various FcγRs (BIACORE T200); conditions: 20° C., HBS-EP+ (FIG. 27)
Method: Soluble FcγRIa and FcγRIIIa in both human and cynomolgus monkey were produced in the form of His-tagged molecules by methods known to those of ordinary skill in the art. […] Next, soluble FcγRIa or FcγRIIIa was injected with a running buffer (used as a reference solution), and was made to interact with the antibodies captured onto the sensor chip. HBS-EP+ (GE Healthcare) was used as the running buffer, and HBS-EP+ was also used to dilute the soluble FcγRIa or FcγRIIIa. […] All measurements were carried out at 20° C.

post-surgical adhesion = assay: Adhesion after surgery (area surrounding the incision site) in surgically-induced endometriosis monkey models; assay type: in vivo, cynomolgus monkeys; conditions: 10 mg/kg; two months before versus six months after initiation of administration, five evaluators
Method: Specifically, adhesion to the area surrounding the incision site on the abdominal wall was compared before and after administration and evaluated by five evaluators on a three-point scale: (1) Improved, (2) Stable, and (3) Progressed. Ratings with a consensus among three or more of the five evaluators were adopted; otherwise (2) Stable was used. Evaluations were carried out on six monkeys in the vehicle group as well as seven monkeys in the antibody […]/[…]-[…] administration group. […] The monkey with “Progressed” was an individual in which the blood concentration of antibody […]/[…]-[…] had decreased due to anti-antibody production.

[2] = tested on: endometriosis nodular lesions and adhesion; assay type: in vivo, cynomolgus monkeys
Source text: Female cynomolgus monkeys of 8 to 14 years of age with regular sexual cycle (provided by the Tsukuba Primate Research Center at the National Institutes of Biomedical Innovation, Health and Nutrition) were laparotomized under anesthesia during the period corresponding to the luteal phase. The uterine corpus was removed by dissecting in a V shape. Then, the uterine corpus was cut into 5 to 10 mm cubes while leaving the smooth muscle layer of the uterus, and one and two pieces were transplanted onto the right abdominal wall and left abdominal wall (cranial and caudal sides), respectively, in such a manner that the endometrium part is in contact with the peritoneum by suturing with an absorbable suture and formed the transplant. After excision, the uterus was sutured with absorbable suture. Then, the remaining endometrial tissues were finely cut and suspended in 5 ml of 2 ng/ml Hepatocyte Growth Factor solution (R&D systems), and this was seeded in the peritoneal cavity for transplantation, followed by closure of the abdomen. Anesthesia was performed using balanced anesthesia of ketamine/xylazine (mixed at an adequate ratio of about 2:1); however, anesthesia was maintained with isoflurane depending on the maintenance period of anesthesia. The body temperature was maintained and controlled during surgery using a heating pad and the condition was monitored electrocardiographically. The antagonist Antisedan (at roughly the same amount as that of xylazine) and antibiotic cephradine were administered at the time of awakening after surgery. The pain reliever Zalban was administered for two days after surgery, and the monkeys were observed regularly every day to confirm the absence of post-surgical abnormalities. In laparoscopic observation, anesthesia and post-surgical monitoring were also performed in the same way.
Laparoscopic observation was carried out four months, nine months (3 months after administration), and 12 months (6 months after administration) following the surgical induction of endometriosis described above, and the pathological conditions of endometriosis were assessed as follows.
The abdomen was incised in the median line under anesthesia, and laparoscopic observation was performed by inserting a trocar and then introducing a laparoscope. The laparoscope was connected to a video system (KARL STORZ) and a monitor. The monitor was used for intraperitoneal observation, and the video system was used for recording. Then, the peritoneal cavity was filled with carbon dioxide gas using Intra-abdominal Insufflation Unit (OLYMPUS) to expand the abdomen, and graduated bars and forceps were inserted from the ventral portion. The size of the lesion was measured using the graduated bar or graduated forceps.
The sizes (width, height, and depth) of nodular lesions formed by suturing the endometrial tissues were measured and the volumes were calculated based on: width (mm)×height (mm)×depth (mm). The lesions and adhesion formed by seeding endometrial tissues after fine cutting were assessed for the site, area, and depth of adhesion and the size of lesion by laparoscopic observation based on modified r-AFS score modified for monkeys from the r-AFS score for clinical use. […] The item on adhesion to the vesicouterine pouch was added, because in the monkey model, the frequency of adhesion to the urinary bladder is higher than in humans. The method for assessing adhesion to the urinary bladder was the same scoring as that used for adhesion to the Douglas' pouch. • 2. Since monkey's body and organ sizes are smaller than those of humans, the criteria of lesion size scoring were altered to: <3 mm, 3-10 mm, and >10 mm.
Based on the results of laparoscopic observation four months after induction, the individuals that met the criteria were selected and grouped. The criteria for the selection are as follows: • 1. Engraftment of endometrial transplant confirmed on the laparoscopic observation four months after induction. • 2. […]

[3] = 10 mg/kg i.v. q4w, six months of administration
[4] = Table 26, proliferation lesion, per nodular lesion (animals 112, 105, 106, 121, 119, 123; sites R, L1, L2), 10 mg/kg

B1: H1009/L395-F1974m: H1009-F1974m (SEQ ID NO:36) heavy chain, L395-kOMT light chain; the anti-IL-8 antibody of Table 29 (antibody)
heavy: QVQLVESGGGLVQPGGSLRLSCAASGFTFSDYYLSWVRQAPGKGLEWVGLIRNKDNYHTPEYSASVKGRFTISRDDSKNSLYLTMSDLKTEDTAVYYCARENHRYDVELAYWGQGTLVTVSSASTKGPSVFPLAPSSKSTSGGTAALGCLVKDYFPEPVTVSWNSGALTSGVHTFPAVLQSSGLYSLSSVVTVPSSSLGTQTYICNVNHKPSNTKVDKKVEPKSCDKTHTCPPCPAPELRRGPSVFLFPPKPKDTLMISRTPEVTCVVVDVSHEDPEVKFNWYVDGVEVHNAKTKPREEQYNSTYRVVSVLTVLHQDWLNGKEYKCKVSNKGLPSSIEKTISKAKGQPREPQVYTLPPSREEMTKNQVSLTCLVKGFYPSDIAVEWESNGQPENNYKTTPPVLDSDGSFFLYSKLTVDKSRWQQGNVFSCSVLHEALHAHTTRKELSLSP
light: DIQMTQSPSSLSASVGDRVTITCRASEIIYSYLAWYQQKPGKAPKLLIYKAKTHADGVPSRFSGSGSGTDFTFTISSLQPEDIATYYCKHHFGFPRTFGQGTKVEIKRTVAAPSVFIFPPSDEQLKSGTASVVCLLNNFYPREAKVQWKVDNALQSGNSQESVTEQDSKDSTYSLSSTLTLSKADYEKHKVYACEVTHQGLSSPVTKSFNRGEC
histopathology of adenomyosis lesions in the uterus (HE staining) (adenomyosis lesions): atrophy of endometrial epithelia in the adenomyosis lesions as well as reduction and atrophy of stromal cells were observed | binding to FcγRs (hFcγRIa, hFcγRIIIa, cynoFcγRIa, cynoFcγRIIIa) [1]: not to bind to any of the FcγRs | adhesion to the area surrounding the incision site: Improved (monkeys/group) (post-surgical adhesion): 6/7 | adhesion to the area surrounding the incision site: Progressed (monkeys/group) (post-surgical adhesion): 1/7 | adhesion to the area surrounding the incision site: Stable (monkeys/group) (post-surgical adhesion): 0/7 | frequency of nodular lesions of type A: proliferative, ≥500 mm3 [2, 3]: 0% | frequency of nodular lesions of type B: proliferative, <500 mm^3 [2, 3]: 8% | frequency of nodular lesions of type C: no change [2, 3]: 33% | frequency of nodular lesions of type D: decreased [2, 3]: 58% | number of nodular lesions of type A: proliferative, ≥500 mm3 / lesions analysed [2, 3]: (0/12) | number of nodular lesions of type B: proliferative, <500 mm^3 / lesions analysed [2, 3]: (1/12) | number of nodular lesions of type C: no change / lesions analysed [2, 3]: (4/12) | number of nodular lesions of type D: decreased / lesions analysed [2, 3]: 7/12 and (7/12) | Atrophy/decrease, stromal cell (P) [2, 4]: ± | Decreased insterstitium (P) [2, 4]: ± | change of size r-AFS score ([2]; after minus before administration, versus vehicle group (FIG. 35-1)): tended to decrease | change of total r-AFS score ([2]; after minus before administration, versus vehicle group, p=0.0070 (FIG. 35-1)): clearly decreased as compared to the vehicle group | change of adhesion score ([2]; after minus before administration, versus vehicle group, p=0.0096 (FIG. 35-1)): clearly decreased as compared to the vehicle group | frequency of deep lesions (endometriosis gland ducts invaded up to the muscle layer of abdominal wall) ([2]; anti-antibody-positive individuals excluded, vehicle group 5/18 lesions): 1/11 | muscle tissue regeneration ([2]; autopsy): muscle tissue regeneration, which was not seen in the vehicle group, was observed | histopathology of the grafts and grafted sites (HE staining) ([2]; autopsy after final laparoscopic observation, compared to the vehicle group): atrophic changes of proliferative epithelia and stromal cells as well as reduction of the interstitium whose major component is collagenous fibers was observed | number of lesions with hemosiderin / lesions ([2]; autopsy, vehicle group 9/16): 4/17 | frequency of lesions with hemosiderin ([2]; autopsy, vehicle group 56%): 24% | total modified r-AFS score before and after administration ([2]; scores recorded during laparoscopic surgery, Wilcoxon's signed-rank-sum test, P=0.875 (FIG. 35-2)): the score did not change

Reference: patent US20240083996A1, “COMPOSITION FOR PROPHYLAXIS OR TREATMENT OF IL-8 RELATED DISEASES” (Chugai Seiyaku Kabushiki Kaisha, priority 2016, published 2024)
